In this assay the target is T1, His-tagged A. vinelandii NifEN heterologously expressed in E. coli, O- and L-cluster containing (AvNifEN^Ec-L) (A. vinelandii) (UniProt P08293).
T1 sequence 1: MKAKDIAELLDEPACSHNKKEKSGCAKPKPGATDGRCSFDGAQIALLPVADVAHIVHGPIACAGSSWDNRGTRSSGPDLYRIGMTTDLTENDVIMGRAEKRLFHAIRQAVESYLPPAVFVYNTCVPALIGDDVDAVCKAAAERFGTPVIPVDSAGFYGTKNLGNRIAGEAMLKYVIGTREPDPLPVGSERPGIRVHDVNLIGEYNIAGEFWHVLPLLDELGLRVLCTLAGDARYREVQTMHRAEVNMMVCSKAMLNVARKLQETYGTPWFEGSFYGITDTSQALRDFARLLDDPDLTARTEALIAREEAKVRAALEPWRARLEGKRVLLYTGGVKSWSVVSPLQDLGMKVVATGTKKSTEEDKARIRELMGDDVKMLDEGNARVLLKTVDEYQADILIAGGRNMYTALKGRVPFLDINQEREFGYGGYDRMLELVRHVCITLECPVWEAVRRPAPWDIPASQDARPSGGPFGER
T1 sequence 2: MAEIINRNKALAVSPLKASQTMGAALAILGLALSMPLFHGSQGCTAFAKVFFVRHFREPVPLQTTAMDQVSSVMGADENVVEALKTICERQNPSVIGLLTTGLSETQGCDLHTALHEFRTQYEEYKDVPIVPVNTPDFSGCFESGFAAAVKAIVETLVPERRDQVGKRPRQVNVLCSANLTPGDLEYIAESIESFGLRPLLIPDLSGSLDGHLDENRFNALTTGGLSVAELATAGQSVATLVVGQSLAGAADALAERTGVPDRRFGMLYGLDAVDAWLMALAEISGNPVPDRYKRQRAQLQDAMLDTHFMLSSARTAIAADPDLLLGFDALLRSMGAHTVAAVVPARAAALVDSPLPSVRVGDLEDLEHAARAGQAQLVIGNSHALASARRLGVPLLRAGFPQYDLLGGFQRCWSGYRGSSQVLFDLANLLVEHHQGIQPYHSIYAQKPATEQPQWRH

B1: M. acetivorans NifB (MaNifB), radical SAM enzyme, L-cluster bound (enzyme)
chain: MPEENQPIKEKNNGPILGEELLRKISEHPCYDKNAQHKYGRIHLAVAPACNIQCNFCVREFDCVNESRPGVTSKVLTPEEALEKTKQILAEYPFIKVVAIAGPGDPLANDETFETFELIRNEFPEITLCMSTNGLMLPEKLPEILRTGVSTLTVTVNAIDPEIQAKIVDHIFYHGKVYKGVEAAKIQIKNQLDGIKAAIDAGIVVKVNTVLIPGINDKHIIEIAKKLNELGVYIMNVMPLINQGAFADLEPPTPEERKAVQEACEPYVMQMRHCRQCRADAYGLLAQDMSQMSEERRKVIKIQTKEDMEKARAVLEKNGKKEA
For the molecule B1, the L-cluster occupancy of AvNifEN^Ec-L calculated from the Fe content, after in vivo transfer of the L-cluster from NifB to NifEN in E. coli is 42.9% and the L-cluster occupancy of AvNifEN^Ec-L relative to native AvNifEN^L (intensity of the g = 1.94 EPR feature), after in vivo transfer of the L-cluster from NifB to NifEN in E. coli was 36%.

Source of the values: article PMC12047441.
